The values that follow come from patent US20080039616A1.

The target of this assay is FLAG® HA BAP fusion protein [phosphatase: P00634]. Description: immunoprecipitation of purified FLAG HA BAP in 3 extraction buffers, blot with anti-HA-peroxidase.

ANTI-FLAG® affinity resin (antibody) had a protein recovery (% of input protein) (% of input protein) of over 70.
